Assay [1] concerns the target T1, recombinant human IL-19 (human, UniProt Q9UHD0 25-177).
T1 construct: also called human IL-19 recombinant protein; interleukin-19
T1 sequence: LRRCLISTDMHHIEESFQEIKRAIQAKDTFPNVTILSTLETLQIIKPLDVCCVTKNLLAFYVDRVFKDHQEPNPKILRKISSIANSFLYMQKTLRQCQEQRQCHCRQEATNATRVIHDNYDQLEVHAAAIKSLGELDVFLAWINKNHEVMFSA
Nature of the assay: BLI (Octet Red96), antibody on AMQ biosensor, IL-19 in solution, 25 C, 1:1 fit. How it is done: Except as noted, all reagents and materials are from ForteBio (Freemont, Calif.). An AMQ biosensor is used to immobilize antibody of interest for analysis.
Binding data is processed using standard double-referencing and fit to a 1:1 binding model using Data Analysis v9.0 evaluation software, to determine the association rate (kₒₙ, M⁻¹ s⁻¹ units), dissociation rate (koff, s⁻¹ units), and Rₘₐₓ (nm units). The equilibrium dissociation constant (KD) was calculated from the relationship KD=koff/kₒₙ, and is in molar units.
(In BLI a coated tip is dipped into the sample, and binding shifts an interference pattern.)

Assay [2] concerns the target T1, recombinant human IL-19. Briefly: BLI; immobilized antibody loaded with 100 nM human IL-19, then competitor human IL-20R beta Fc-fusion added; the response is that of the receptor-Fc step. From the text: Binding between a ligand immobilized on the biosensor tip surface and an analyte in solution produces an increase in optical thickness at the biosensor tip, which results in a wavelength shift (expressed in nm).

These results are taken from patent US20230220062A1 (Eli Lilly, published 2023).

As usually defined, the Kd is the free concentration of one partner at which half of the binding sites on the other are occupied at equilibrium, for simple one-to-one binding. As usually defined, the koff is the rate constant with which the complex falls apart. The term kon denotes a measure of how fast the partners come together.

B1: murine derived IL-19 Ab 2 (M_2) (antibody, mouse IgG1, kappa, V domains shown)
VH: LVQLQQSDAELVKPGASLKISCKVSGYTFTDHALHWMKQRPEQGLEWIGYIYPRDGSTKYNEKFKGKATLTADRSSSTAYMELNSLTSEDSAVYFCARGWDFAMDYWGQGTSVTVSS
VL: DIVLTQSPESLAVSLGQRATISCRASESVDNYGISFIHWYQQKPGQPPKLLIYRASNLKSGIPARFSGRGSRTDFTLTINPVETDDVATYYCQQINKDPLTFGAGTKLELKR
B1: in the assay with recombinant human IL-19 [1], the Kd was found to be 2900 pM, the koff was determined as 0.000185 s⁻¹ and the kon worked out at 63700 M⁻¹ s⁻¹. In addition, in the assay with recombinant human IL-19 [2], the “IL-20R beta Fc protein binding response (nm)” value was 0.361 nm.

B2: rabbit derived IL-19 Ab 1 (R_1) (antibody, V domains shown)
VH: QQLEESGGGLVQPEGSLTLTCTASGFSFSSSYWICWVRQAPGKGLEWLACIDTGVSGDTYYANWAEGRFTISKTSSTTVTLQMTSLTAADTATYFCARDIFGSAIDNSLWGPGTLVTVSS
VL: AIDMTQTPASVSEPVGGTVTIKCQASQSISSYLAWYQQKPGQPPKLLIYSASTLASGVPSRFRGSGSGREFTLTISDLECADAATYYCQCHYHGSSYWDNSFGGGTEVVVK
Regarding B2, in the assay with recombinant human IL-19 [1], the Kd was found to be 311 pM, the koff came out at 1.04e-05 s⁻¹ and the kon is 33300 M⁻¹ s⁻¹.

B3: rabbit derived IL-19 Ab 2 (R_2) (antibody, V domains shown)
VH: QQLEESGGGLVQPEGSLTLTCTASGFSFSSSYWICWVRQAPGKGLEWLACIDTGVSGDTYYANWAKGRFTISKTSSTTVTLQMTSLTAADTATYFCARDIFGSAIDNSLWGPGTLVTVSS
VL: DVVMTQTPASVEAAVGGTVTIKCQASESIGNALAWYQQKPGQPPKLLIYDASKLASGVPSRFKGSGSGTQFTLTISDLECADAATYYCQCHYHGSSYWDNSFGGGTEVVVK
As for B3, in the assay with recombinant human IL-19 [1], the Kd is 103 pM, the koff was 4.42e-05 s⁻¹ and the kon stood at 428000 M⁻¹ s⁻¹.

B4: rabbit derived IL-19 antibody R_4 (antibody, V domains shown)
VH: CQSVEESGGRLVTPGTPLTLTCTVSGIDLSIYAMGWVRQAPGKGLEYIGIIDTTGTAYYARWAKGRFTISKTSATVALKITSPTTEDTATYFCARDSGSLYYGSYALWGPGTLVTVSS
VL: DVVMTQTPSSVSEPVGGTVTIKCQASQSIYSYLSWYQQKPGQPPKLLIYEASKLASGVPSRFKGSGSGTQFTLTISGVECADAATYYCQQGYSSSNVDNTFGGGTEVVVT
As to B4, in the assay with recombinant human IL-19 [1], the Kd came to 8520 pM, the koff is 0.0013 s⁻¹ and the on-rate constant (kon) is 152000 M⁻¹ s⁻¹.

B5: rabbit derived IL-19 Ab 39 (R_39) (antibody, V domains shown)
VH: QEQLKESGGGLVQPGGSLKLSCKASGFDLSSYGVSWVRQAPGKGLEWIGYIDPVFGSTYYANWVNGRFTISSDNAQNTLYLQLNSLTAADTATYFCARGSGYVYYGYTYDLWGPGTLVTVSS
VL: DIVMTQTPASVEAAVGGTVTIKCQASQSIYRYLSWYQQKPGQRPKLLIYGASNLASGVSSRFKGSGSGTEFTLTISDLECADAATYYCQSYYYSSSSGYGNVFGGGTEVVVKG
On to B5, for which, in the assay with recombinant human IL-19 [1], the Kd was 170000 pM, the koff came to 0.0348 s⁻¹ and the kon came out at 206000 M⁻¹ s⁻¹. Moreover, the “IL-20R beta Fc protein binding response (nm)” value with recombinant human IL-19 [2] is -0.0421 nm.

B6: murine derived IL-19 Ab 1 (M_1) (antibody, mouse IgG1, kappa, V domains shown)
VH: EVQLQQSGPVLVKPGASVKMSCKASGYKFTDYFVGWVKQSHGKSLEWIGYVDPENGYTRCNQKFKGKATLTVDKSSSTAYMELNSLTSEDSAVYYCARYDYDWAWFTNWGQGTLVTVSA
VL: DIVMTQSPSSLAMSVGQKVTMSCKSSQSLLSSYNQKNYLAWYQQKPGQSPKLLVYFASTRPPGVPDRFIGSGSGSDFTLTISSVQAEDLADYFCQQHERLPITFGAGTKLELKR
As to B6, in the assay with recombinant human IL-19 [1], the Kd came to 57.6 pM, the koff is 6.32e-05 s⁻¹ and the kon was found to be 1.1e+06 M⁻¹ s⁻¹. The “IL-20R beta Fc protein binding response (nm)” value with recombinant human IL-19 [2] was -0.0075 nm.

B7: murine derived IL-19 Ab 5 (M_5) (antibody, mouse IgG1, kappa, V domains shown)
VH: EVQLQQSGPVLVKPGASVKMSCKASGYPFNDYFLGWVKQSHGKSLEWIGSINPDNDYTMSNQKFKGKATLTVDKSSSTAYMELNSLTSEDSAVYYCARYDYDWAWFAHWGQGTLVTVSA
VL: DIVMTQSPSSLAMSVGQKVTMSCKSSQSLLSSYNQKNYLAWYQRKPGQSPKLLVYFASQRATGVPDRFIGSGSGSDFTLTISSVQAEDLADYFCQQHTRLPITFGAGTKLELKR
Consider B7, for which, in the assay with recombinant human IL-19 [1], the Kd is 52.1 pM, the koff came out at 3.58e-05 s⁻¹ and the kon turned out to be 688000 M⁻¹ s⁻¹. For the same molecule, the “IL-20R beta Fc protein binding response (nm)” value in the assay with recombinant human IL-19 [2] is -0.0124 nm.

B8: rabbit derived IL-19 antibody R_3 (antibody, V domains shown)
VH: CQSLEESGGGLVEPEGSLTLTCKASGFSFSSSYWICWVRQAPGKGLEWIACTDTFSGDTYYASWAKGRFTISKTSSTTVTLRMTSLTDADTATYFCARDIFGTAVHISLWGPGTLVTVSS
VL: DVVMTQTPSSVEAAVGGTVTIKCQASQSIGSSLAWYQQKPGQRPKLLIYGASTLASGVPSRFKGSGSGTEFTLTISDLECADAATYYCQCHYHGSSYWDNSFGGGTEVVVK
For B8, in the assay with recombinant human IL-19 [1], the Kd was less than 1 pM, the koff is less than 1e-07 s⁻¹ and the kon is 391000 M⁻¹ s⁻¹.

B9: murine derived IL-19 Ab 3 (M_3) (antibody, mouse IgG1, kappa, V domains shown)
VH: QIQLVQSGPELKKPGETVKISCKASGYTFTTYGMSWVKQAPGKGLKWMVWINTYSGVPTYVDDFKGRFAFSLETSASTAYLQINNLKNEDTATYFCARRDEGFAYWGQGTLVTVSA
VL: DIKMTQSPSSMYASLGERVTITCKASQDINSYLSWFQQKPGKSPKTLIYRANRLVDGVPSRFSGSGSGQDYSLTISSLEYEDMGIYFCLQYDDFPYTFGGGTKLEIKR
Take B9: in the assay with recombinant human IL-19 [2], the “IL-20R beta Fc protein binding response (nm)” value was 0.354 nm.
